According to publication PMC6881253, “The PCNA interaction motifs revisited: thinking outside the PIP-box” (Cellular and Molecular Life Sciences: CMLS, 2019):

Experiments:
Details in all cases: both partners purified
[1] = molecular target: T1, N-terminally His6-tagged human PCNA (proliferating cell nuclear antigen) (human, UniProt P12004 1-261); test: ITC; ITC200; PCNA injected into the peptide; 10 mM HEPES, 150 mM NaCl, 1 mM EDTA, 1 mM TCEP, pH 7.4; 25 °C; single binding site model; triplicates
T1 construct: Proliferating cell nuclear antigen, human; The tag is used for capture in SPR; source: E. coli BL21(DE3), purified (Ni-NTA, SEC)
T1 sequence (P12004 whole entry): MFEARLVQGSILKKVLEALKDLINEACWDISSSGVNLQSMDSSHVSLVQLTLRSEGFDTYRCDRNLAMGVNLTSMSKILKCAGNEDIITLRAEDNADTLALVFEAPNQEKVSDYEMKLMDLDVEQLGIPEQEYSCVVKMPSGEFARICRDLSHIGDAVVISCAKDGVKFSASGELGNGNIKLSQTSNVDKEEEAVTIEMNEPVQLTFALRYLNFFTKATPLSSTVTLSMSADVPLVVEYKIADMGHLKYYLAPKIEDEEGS

[2] = molecular target: T1, N-terminally His6-tagged human PCNA …; test: SPR; Biacore T200, single-cycle; His6-PCNA captured by anti-His antibody coupled to a CM5 chip, peptides injected (five twofold dilutions); 10 mM HEPES, 150 mM NaCl, 0.05% P20, pH 7.4; 25 °C; kinetic fit for p21, steady-state fit for the other peptides
[3] = molecular target: T1, N-terminally His6-tagged human PCNA …; test: ITC; ITC200; PCNA injected into the peptide; 10 mM HEPES, 150 mM NaCl, 1 mM EDTA, 1 mM TCEP, pH 7.4; 25 °C; single binding site model; triplicates; remark: listed apart in the source
[4] = molecular target: T1, N-terminally His6-tagged human PCNA …; test: SPR; Biacore T200, single-cycle; His6-PCNA captured by anti-His antibody coupled to a CM5 chip, peptides injected (five twofold dilutions); 10 mM HEPES, 150 mM NaCl, 0.05% P20, pH 7.4; 25 °C; kinetic fit for p21, steady-state fit for the other peptides; remark: listed apart in the source

B1: p21^140–157,Q144A (Ac-RKRRATSMTDFYHSKRRL-NH2) (peptide)
peptide: Ac-RKRRATSMTDFYHSKRRL-NH2
notes: also called p21 peptide variant with Q at the first position mutated to alanine; source: peptide, > 95% purity
**Q.** Which Kd [1] does the source give for B1 here?
**A.** Its Kd is 1300 nM.

B2: p21^140–157 peptide (peptide)
peptide: Ac-RKRRQTSMTDFYHSKRRL-NH2
notes: also called extended peptide; source: peptide, > 95% purity
**Q.** How did the Kd [1] turn out when B2 was run?
**A.** The Kd was 27 nM.

B3: chimeric peptide comprising the Fen1 motif and the flanking regions of p21 (Ac-RKRRQGRLDDFFHSKRRL-NH2) (peptide)
peptide: Ac-RKRRQGRLDDFFHSKRRL-NH2
notes: PIP-box motif of flap endonuclease 1 (FEN1), human; also called p21 flanks grafted to Fen1; source: peptide, > 95% purity
**Q.** With B3 as the binder, how does the Kd [1] read?
**A.** Its Kd is 730 nM.

B4: p21^143–157 peptide (Ac-RQTSMTDFYHSKRRL-NH2) (peptide)
peptide: Ac-RQTSMTDFYHSKRRL-NH2
notes: also called initial p21 peptide; p21 peptide; source: peptide, > 95% purity
**Q.** How did the Kd [2] turn out when B4 was run?
**A.** The Kd was 80 nM.

**Q.** What about the Kd [3] of the same binder?
**A.** Its Kd is 67 nM.

**Q.** What about the dH [3] of the same binder?
**A.** The dH was -55 kcal/mol.

**Q.** And the koff [4]?
**A.** Its koff is 0.14 ± 0.0003 s⁻¹.

**Q.** And the kon [4]?
**A.** Its kon is 1.7e+06 M⁻¹ s⁻¹.

**Q.** And the “stoichiometry N” value [4]?
**A.** The value was 3 ligands per PCNA trimer.

B5: FEN1 peptide (Ac-TQGRLDDFFKVTGSL-NH2) (peptide)
peptide: Ac-TQGRLDDFFKVTGSL-NH2
notes: Flap endonuclease 1 (FEN1), human, canonical PIP-box; source: peptide, > 95% purity
**Q.** Which Kd [2] does the source give for B5 here?
**A.** The Kd was 45000 nM.

B6: MSH6 peptide (Ac-RQSTLYSFFPKSPAL-NH2) (peptide)
peptide: Ac-RQSTLYSFFPKSPAL-NH2
notes: DNA mismatch repair protein MSH6, human, canonical PIP-box at the very N-terminus; source: peptide, > 95% purity
**Q.** How did the Kd [2] turn out when B6 was run?
**A.** Its Kd is 2900 nM.

**Q.** What about the Kd [4] of the same binder?
**A.** The Kd was 3000 ± 50 nM.

B7: synthetic peptide harboring an APIM (Ac-MDRWLVKW-NH2) (peptide)
peptide: Ac-MDRWLVKW-NH2
notes: also called APIM peptide; source: synthetic peptide, > 95% purity
**Q.** B7 was tested. Which Kd [2] did it give?
**A.** Its Kd is 11000 nM.

B8: p21^140–164 peptide (Ac-[residues removed]-NH2) (peptide)
peptide: RKRRQTSMTDFYHSKRRLIFSKRKP
modifications: N-terminally acetylated, C-terminally amidated
notes: called p21^140–163 in the results and the ITC methods; the name p21^140–163 is used elsewhere for the same peptide; also called p21^140–163; source: peptide, > 95% purity
**Q.** For B8, which Kd [1] is on record?
**A.** The Kd was 6.4 nM.
